This note sets out measurements from PMC6949598, “Structure-based mechanism of cysteine-switch latency and of catalysis by pappalysin-family metallopeptidases” (IUCrJ, 2020).

For the assay, the target named is T1, mature wild-type mirolysin (Tannerella forsythia, UniProt A0A0F7IPS1 55-331).
T1 construct: the model holds Pro58-Pro327; Holds one catalytic zinc and two calcium ions; disulfides Cys243-Cys271 and Cys262-Cys291; The promirolysin constructs were made in E. coli BL21 (DE3) as fusions with N-terminal GST and a PreScission site; also called mature mirolysin; CD; source: recombinant, prepared as previously described (Koneru et al., 2017)
In words: crystal structure; mature mirolysin incubated at 1:2 molar ratio with BFO_2662, which was cleaved; sitting drop, 4 °C, protein ~12 mg/ml in 5 mM Tris HCl, 50 mM NaCl, 5 mM CaCl2, pH 8.0; reservoir 40% ethanol, 5% PEG 1000, 0.1 M phosphate-citrate pH 4.2; 1.5 Å; one complex per asymmetric unit. The settings on record: both partners purified.

B1: tetradecapeptide K110-K123 of small lipoprotein BFO_2662 (peptide)
peptide: KRDPVYFIKLSTIK
notes: segment K110-K123 of small lipoprotein BFO_2662, Tannerella forsythia; numbered Lys1-Lys14 in the structure; only the first seven residues were assigned unambiguously from the map; A citrate (CIT-1) in sub-site S1 belongs to molecule B of the model but is no part of the peptide; also called Lys1-Lys14; product; source: cleavage product of BFO_2662, cut by mirolysin during crystallization …
Regarding B1, the binding result is listed as “binds”.
